Biological target: Fc gamma receptor (Fc(γ)R) on dendritic cells
Experiment: cell-based or functional assay

DC uptake of apoptotic tumor cells: 300%
Substance: monoclonal antibody 3G4 (ATCC PTA 4545)
